Reference: patent US20070237776A1 (Regeneron, published 2007)
Values belong to the binder of their own block, whether it stands above or below them.

Tests used:
[1] = target: T1, hIL-18Rα-hFc fusion protein (human, UniProt Q13478 19-329, limits assumed); assay: ELISA solution affinity: antibody premixed with serial dilutions of hIL-18Rα-hFc, free antibody caught on hIL-18Rα-hFc-coated plate
T1 construct: also called IL-18R1-hFc; not shown: human Fc
T1 sequence: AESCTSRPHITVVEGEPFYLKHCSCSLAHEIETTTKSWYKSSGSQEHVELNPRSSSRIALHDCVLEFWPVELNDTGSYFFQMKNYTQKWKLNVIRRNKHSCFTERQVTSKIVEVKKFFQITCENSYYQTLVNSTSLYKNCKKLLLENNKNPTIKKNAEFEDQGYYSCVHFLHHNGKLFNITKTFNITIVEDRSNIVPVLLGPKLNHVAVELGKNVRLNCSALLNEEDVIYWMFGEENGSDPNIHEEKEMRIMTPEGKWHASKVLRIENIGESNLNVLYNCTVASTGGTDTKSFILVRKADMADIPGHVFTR
Procedure: Binding affinity of the antibodies to antigen were also measured using a immunoassay. Antibodies were characterize from hybridoma conditioned medium or as purified protein. Protein was purified after hybridoma cells were grown in low IgG medium and affinity purified using Protein G. IC₅₀ of antigen binding was determined with an ELISA-based assay. Briefly, constant amounts of antibody at different levels, either in hybridoma conditioned medium or purified, were premixed with serial dilutions of antigen protein, hIL-18Rα-hFc, ranging from 0 to 10 mg/ml, and incubated for two hours at room temperature to reach pseudo-binding equilibrium between the antibody and antigen. These solutions were then transferred to 96-well hIL-18Rα-hFc pre-coated plates (solid phase) to allow the free-antibody in the mixtures to bind to plate-coated hIL-18Rα-hFc. […] After washing off excess antibody in solution, the plate-bound antibodies were detected with an HRP-conjugated goat anti-mouse IgG polyclonal antibody reagent and developed using either colorimetric or chemiluminescent substrates. The dependency of the signals on the concentrations of antigen in solution was analyzed with a 4 parameter fit analysis using Prism™ software from Graph Pad™ and reported as IC₅₀ that render 50% reduction of antibody binding to plate-coated antigen.

[2] = target: T2, human interleukin-18 receptor alpha (hIL-18Rα) on cells (human, UniProt Q13478 19-541); assay: cell-based or functional assay
T2 sequence: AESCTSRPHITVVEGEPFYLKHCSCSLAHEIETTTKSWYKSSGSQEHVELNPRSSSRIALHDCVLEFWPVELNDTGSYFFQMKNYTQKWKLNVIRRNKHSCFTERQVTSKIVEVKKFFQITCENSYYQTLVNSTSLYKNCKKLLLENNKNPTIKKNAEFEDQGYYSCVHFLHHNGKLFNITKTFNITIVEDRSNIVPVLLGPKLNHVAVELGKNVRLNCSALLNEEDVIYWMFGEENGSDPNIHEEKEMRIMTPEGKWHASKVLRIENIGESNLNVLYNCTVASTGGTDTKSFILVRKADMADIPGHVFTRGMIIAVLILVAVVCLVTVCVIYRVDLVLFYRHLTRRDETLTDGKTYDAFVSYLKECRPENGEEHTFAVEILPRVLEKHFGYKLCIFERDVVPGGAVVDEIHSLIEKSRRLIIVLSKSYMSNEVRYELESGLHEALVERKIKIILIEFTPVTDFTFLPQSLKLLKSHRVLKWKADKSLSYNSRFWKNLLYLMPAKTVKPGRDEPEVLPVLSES

[3] = target: T1, hIL-18Rα-hFc fusion protein; assay: SPR (BIAcore), antibody from conditioned medium captured on anti-mouse IgG, hIL-18Rα-hFc in solution
Procedure: The KD of the antigen binding to the selected antibodies described above were determined by surface kinetics on a real-time biosensor surface plasmon resonance assay (BIAcore™). The antibody derived from hybridoma was captured on an anti-mouse IgG surface and exposed to various concentrations of hIL-18Rα-hFc fusion protein. Kinetic analysis using evaluation software was performed to obtain the association and dissociation rate constants.

[4] = target: T3, monomeric receptor, hIL18Rα-hIL-18Rb-myc-myc-his (human, UniProt O95256 20-356, limits assumed); assay: SPR (BIAcore), mAb from subclone hybridoma supernatant captured on anti-mouse IgG, monomeric receptor 50-12.5 nM, 1:1 model
T3 construct: Construct known only by its name; also called monomeric antigen; monomeric hIL-18Rα; not shown: myc-myc-his tag
T3 sequence: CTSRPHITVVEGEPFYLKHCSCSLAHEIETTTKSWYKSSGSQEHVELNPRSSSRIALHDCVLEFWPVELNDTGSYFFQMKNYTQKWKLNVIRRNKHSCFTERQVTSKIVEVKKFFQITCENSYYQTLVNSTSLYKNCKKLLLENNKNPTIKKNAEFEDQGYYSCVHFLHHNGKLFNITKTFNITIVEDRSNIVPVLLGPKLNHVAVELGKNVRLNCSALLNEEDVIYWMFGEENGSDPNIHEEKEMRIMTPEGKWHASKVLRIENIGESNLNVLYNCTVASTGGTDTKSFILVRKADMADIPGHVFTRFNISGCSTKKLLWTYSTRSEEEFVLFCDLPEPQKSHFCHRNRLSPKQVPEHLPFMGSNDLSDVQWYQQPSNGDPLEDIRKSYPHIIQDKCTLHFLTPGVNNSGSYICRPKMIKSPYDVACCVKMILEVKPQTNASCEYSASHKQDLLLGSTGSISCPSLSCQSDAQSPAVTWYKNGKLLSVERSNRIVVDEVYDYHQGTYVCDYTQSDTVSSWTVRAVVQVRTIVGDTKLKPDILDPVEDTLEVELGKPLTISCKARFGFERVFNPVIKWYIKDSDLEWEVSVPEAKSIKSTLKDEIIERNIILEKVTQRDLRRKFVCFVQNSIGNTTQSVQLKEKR
Procedure: (§1) Both mouse IgG1 and human IgG4 versions of the derived antibody were measured to determine KD for monomeric antigen using BIAcore™ (Table 2). Binding affinity of monomeric receptor was measured by capturing mAb from subclone hybridoma supernatant and CHO conditioned media over amine coupled anti-mouse IgG and anti-human IgG. […] Data were processed and analyzed using a 1:1 binding model and KD values were calculated.

[5] = target: T3, monomeric receptor, …; assay: SPR (BIAcore), mAb from CHO conditioned medium captured on anti-human IgG, monomeric receptor 50-12.5 nM, 1:1 model
Procedure: as §1

IC50 [1]: 0.026 nM
KG-1 Bioassay (IC50 nM) [2]: 0.085 nM
Luciferase Bioassay (IC50 nM) [2]: 0.653 nM
Kd [3]: 0.135 nM
B1: VH1F9 (antibody, V domains shown)
VH: QVQLVQSGAEVKKPGASVRVSCKASGYTFTSYDINWVRQATGQGLEYMGWMNPNSGNTGYAQKFQGRVSLTRDTSISTAYMDLNSLRSEDTAVYYCTTPGDKWNYEYFQFWGQGTLVTVSS
VL: DIQMTQSPSSVSASVGDRVTITCRASQHISIWLAWYQQKPGKAPKLLILSASSLLSGVPSRFSGSGSGTDFALTVSSLQPEDFATYYCQQANSFPSFGPGTKVEIK
notes: Hybridoma-derived chimeric IgG: human variable regions, mouse constant regions

Kd [4]: 6.81 nM
B2: VH1F9-18, mouse IgG1 (antibody, V domains shown)
VH: QVQLVQSGAEVKKPGASVRVSCKASGYTFTSYDINWVRQATGQGLEYMGWMNPNSGNTGYAQKFQGRVSLTRDTSISTAYMDLNSLRSEDTAVYYCTTPGDKWNYEYFQFWGQGTLVTVSS
VL: DIQMTQSPSSVSASVGDRVTITCRASQHISIWLAWYQQKPGKAPKLLILSASSLLSGVPSRFSGSGSGTDFALTVSSLQPEDFATYYCQQANSFPSFGPGTKVEIK
notes: Chimeric: human variable, mouse IgG1 constant; from subclone hybridoma supernatant; subclone -18 of VH1F9

Kd [5]: 6 nM
B3: VH1F9-18, human IgG4 (antibody, V domains shown)
VH: QVQLVQSGAEVKKPGASVRVSCKASGYTFTSYDINWVRQATGQGLEYMGWMNPNSGNTGYAQKFQGRVSLTRDTSISTAYMDLNSLRSEDTAVYYCTTPGDKWNYEYFQFWGQGTLVTVSS
VL: DIQMTQSPSSVSASVGDRVTITCRASQHISIWLAWYQQKPGKAPKLLILSASSLLSGVPSRFSGSGSGTDFALTVSSLQPEDFATYYCQQANSFPSFGPGTKVEIK
notes: Fully human IgG4 version from CHO conditioned medium
